Data as given in article PMC8318918.

Experiments:
[1] = molecular target: His-tagged XRCC1, insect-cell expressed (human) (UniProt P18887); experiment: co-purification after co-expression
[2] = molecular target: His-tagged LigIIIβ full length (1–846) (human); experiment: SPR
LigIII_(170–755) (human) = experiment: SEC-MALS
[3] = molecular target: LigIIIα co-expressed with His-tagged XRCC1 and TDP1 in insect cells (human); experiment: co-purification after co-expression
[4] = molecular target: His-tagged LigIIIα (full-length DNA ligase IIIα), co-expressed with TDP1 in insect cells (human); experiment: co-purification after co-expression

UniProt P18887, sequence (P18887 whole entry): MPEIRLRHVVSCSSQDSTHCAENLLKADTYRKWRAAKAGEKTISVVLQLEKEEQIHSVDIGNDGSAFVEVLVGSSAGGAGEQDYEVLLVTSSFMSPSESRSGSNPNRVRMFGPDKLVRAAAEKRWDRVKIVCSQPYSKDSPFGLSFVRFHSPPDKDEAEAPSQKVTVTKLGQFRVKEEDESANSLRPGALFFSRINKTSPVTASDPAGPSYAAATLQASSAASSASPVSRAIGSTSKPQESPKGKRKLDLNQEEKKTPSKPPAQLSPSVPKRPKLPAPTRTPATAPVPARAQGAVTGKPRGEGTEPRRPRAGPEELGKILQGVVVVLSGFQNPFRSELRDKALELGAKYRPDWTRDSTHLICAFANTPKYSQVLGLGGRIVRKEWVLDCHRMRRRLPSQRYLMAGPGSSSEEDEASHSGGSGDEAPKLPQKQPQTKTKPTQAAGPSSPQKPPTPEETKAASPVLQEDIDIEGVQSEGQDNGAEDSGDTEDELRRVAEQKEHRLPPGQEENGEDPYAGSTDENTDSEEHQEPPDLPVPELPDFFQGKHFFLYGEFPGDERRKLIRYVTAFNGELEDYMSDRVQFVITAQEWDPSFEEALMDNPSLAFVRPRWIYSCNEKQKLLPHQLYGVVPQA

| stoichiometry N [1] | Kd [2] [nM] | stoichiometry N (LigIII_(170–755) (human)) | stoichiometry N [3] | stoichiometry N [4] | Substance |
| --- | --- | --- | --- | --- | --- |
| 1 | – | – | – | – | LigIIIα co-expressed with His-tagged XRCC1 and TDP1 in insect cells (enzyme) |
| – | 8.8 | – | – | – | TDP1-S81E, insect-cell expressed, phosphorylated (from UniProt Q9NUW8 1-608) (enzyme) |
| – | 5.3 | – | – | – | TDP1-S81A, insect-cell expressed, phosphorylated (from UniProt Q9NUW8 1-608) (enzyme) |
| – | 5.1 | 1 | 1 | 1 | Flag-tagged TDP1 (tyrosyl DNA phosphodiesterase 1), insect-cell expressed, phosphorylated (from UniProt Q9NUW8 1-608) (enzyme) |
